What follows are sequences tested on Escherichia coli TOP10 (assay: shrunken log2 fold change of peptide-encoding DNA abundance (4.5 h post-induction vs induction); higher = less antimicrobial activity (less host growth inhibition)). Details: time post-induction: 4.5 h; library: site-saturation at positions 5, 18, 19, 20.
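Also: peptides expressed intracellularly from a pBAD plasmid library in pooled LB shake-flask culture, induced with 0.3% L-arabinose, DNA abundance read by NGS, three biological replicates, DESeq2 with apeglm shrinkage.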

Sequence	shrunken log2 fold change
RRIRLRPPRLPRPRPRPQYLPRP	-0.0559
RRIRFRPPRLPRPRPRPEWTPRP	0.155
RRIRARPPRLPRPRPRPLPHPRP	0.209
RRIRFRPPRLPRPRPRPGVCPRP	0.307
RRIRKRPPRLPRPRPRPANNPRP	0.0823
RRIRGRPPRLPRPRPRPGASPRP	0.934
RRIRDRPPRLPRPRPRPDYIPRP	0.0998
RRIRSRPPRLPRPRPRPVAWPRP	0.0469
RRIRVRPPRLPRPRPRPSPAPRP	0.34
RRIRYRPPRLPRPRPRPWSGPRP	-0.184
RRIRARPPRLPRPRPRPYMIPRP	-0.494
RRIRMRPPRLPRPRPRPSVEPRP	0.227
RRIRVRPPRLPRPRPRPPNEPRP	0.345
RRIRARPPRLPRPRPRPPFLPRP	0.529
RRIRRRPPRLPRPRPRPQGCPRP	-0.189
RRIRERPPRLPRPRPRPFTQPRP	-0.299
RRIRQRPPRLPRPRPRPPGQPRP	0.136
RRIRDRPPRLPRPRPRPPGYPRP	0.0954
RRIRIRPPRLPRPRPRPECEPRP	-0.0311
RRIRFRPPRLPRPRPRPCFKPRP	-0.426
RRIRYRPPRLPRPRPRPGLSPRP	-0.439
RRIRKRPPRLPRPRPRPMCFPRP	0.265
RRIRPRPPRLPRPRPRPAHLPRP	0.317
RRIRIRPPRLPRPRPRPWYIPRP	-0.0639
RRIRCRPPRLPRPRPRPVCTPRP	0.0452

Sequence	shrunken log2 fold change
RRIRYRPPRLPRPRPRPVMLPRP	-0.256
RRIRRRPPRLPRPRPRPFDTPRP	-0.154
RRIRGRPPRLPRPRPRPAMLPRP	0.7
RRIRTRPPRLPRPRPRPSVKPRP	-0.177
RRIRYRPPRLPRPRPRPMNLPRP	-0.0114
RRIRFRPPRLPRPRPRPRQIPRP	0.0287
RRIRDRPPRLPRPRPRPKACPRP	0.024
RRIRPRPPRLPRPRPRPELTPRP	0.537
RRIRCRPPRLPRPRPRPQCLPRP	-0.442
RRIRMRPPRLPRPRPRPRLVPRP	0.76
RRIRWRPPRLPRPRPRPIFPPRP	0.13
RRIRNRPPRLPRPRPRPKMIPRP	-0.495
RRIRYRPPRLPRPRPRPNNKPRP	-1.17
RRIRERPPRLPRPRPRPESQPRP	-0.101
RRIRWRPPRLPRPRPRPGPCPRP	0.101
RRIRYRPPRLPRPRPRPANMPRP	-0.683
RRIRGRPPRLPRPRPRPKDFPRP	-0.0214
RRIRLRPPRLPRPRPRPVGYPRP	-0.0152
RRIRKRPPRLPRPRPRPRRWPRP	0.717
RRIRARPPRLPRPRPRPPINPRP	-0.192
RRIRMRPPRLPRPRPRPFFCPRP	0.0186
RRIRTRPPRLPRPRPRPKTEPRP	0.0183
RRIRSRPPRLPRPRPRPAEAPRP	0.429
RRIRNRPPRLPRPRPRPERMPRP	-0.0351
RRIRSRPPRLPRPRPRPKVKPRP	0.0666

Sequence	shrunken log2 fold change
RRIRTRPPRLPRPRPRPYQLPRP	-0.5
RRIRVRPPRLPRPRPRPAHMPRP	-0.103
RRIRPRPPRLPRPRPRPYDAPRP	-0.0642
RRIRMRPPRLPRPRPRPYGCPRP	-0.341
RRIRMRPPRLPRPRPRPFELPRP	0.0846
RRIRRRPPRLPRPRPRPWQNPRP	-0.111
RRIRLRPPRLPRPRPRPPFYPRP	-0.185
RRIRVRPPRLPRPRPRPYFAPRP	-0.246
RRIRMRPPRLPRPRPRPYVGPRP	0.0299
RRIRNRPPRLPRPRPRPQFYPRP	-0.475
RRIRTRPPRLPRPRPRPFWQPRP	0.0872
RRIRLRPPRLPRPRPRPMPCPRP	-0.12
RRIRNRPPRLPRPRPRPELDPRP	0.0611
RRIRDRPPRLPRPRPRPTWGPRP	0.282
RRIRERPPRLPRPRPRPFPDPRP	-0.00133
RRIRPRPPRLPRPRPRPPQCPRP	0.228
RRIRFRPPRLPRPRPRPEPSPRP	0.378
RRIRTRPPRLPRPRPRPPEGPRP	0.308
RRIRFRPPRLPRPRPRPQPCPRP	0.078
RRIRGRPPRLPRPRPRPVDFPRP	0.408
RRIRNRPPRLPRPRPRPIYSPRP	-0.0185
RRIRIRPPRLPRPRPRPCAHPRP	0.0482
RRIRLRPPRLPRPRPRPAGTPRP	0.216
RRIRVRPPRLPRPRPRPDQNPRP	-0.0845
RRIRVRPPRLPRPRPRPGPHPRP	0.121

Sequence	shrunken log2 fold change
RRIRMRPPRLPRPRPRPVIWPRP	0.46
RRIRWRPPRLPRPRPRPLSPPRP	-0.097
RRIRSRPPRLPRPRPRPNGYPRP	-0.12
RRIRQRPPRLPRPRPRPHFHPRP	-0.396
RRIRDRPPRLPRPRPRPYKCPRP	-0.00925
RRIRGRPPRLPRPRPRPTDLPRP	-0.109
RRIRWRPPRLPRPRPRPDYDPRP	-0.246
RRIRWRPPRLPRPRPRPDDHPRP	0.0959
RRIRTRPPRLPRPRPRPILHPRP	-0.324
RRIRCRPPRLPRPRPRPDFGPRP	-0.275
RRIRQRPPRLPRPRPRPLIPPRP	0.114
RRIRARPPRLPRPRPRPADDPRP	0.409
RRIRQRPPRLPRPRPRPHTDPRP	-0.228
RRIRPRPPRLPRPRPRPNWKPRP	-0.101
RRIRLRPPRLPRPRPRPAQVPRP	0.324
RRIRGRPPRLPRPRPRPNHMPRP	-0.0194
RRIRMRPPRLPRPRPRPHWNPRP	-0.271
RRIRHRPPRLPRPRPRPNSYPRP	0.118
RRIRMRPPRLPRPRPRPTCHPRP	0.317
RRIRKRPPRLPRPRPRPMQWPRP	0.263
RRIRPRPPRLPRPRPRPQSEPRP	-0.381
RRIRMRPPRLPRPRPRPDWLPRP	-0.0671
RRIRYRPPRLPRPRPRPCSMPRP	-0.0147
RRIRGRPPRLPRPRPRPWQAPRP	0.00236
RRIRVRPPRLPRPRPRPSRQPRP	-0.0237

Sequence	shrunken log2 fold change
RRIRPRPPRLPRPRPRPWYIPRP	-0.472
RRIRNRPPRLPRPRPRPKENPRP	-0.409
RRIRKRPPRLPRPRPRPHDAPRP	0.437
RRIRLRPPRLPRPRPRPERCPRP	0.00413
RRIRRRPPRLPRPRPRPTEFPRP	-0.191
RRIRGRPPRLPRPRPRPYTDPRP	-0.417
RRIRVRPPRLPRPRPRPYIHPRP	-0.757
RRIRCRPPRLPRPRPRPMTLPRP	-0.135
RRIRMRPPRLPRPRPRPIPFPRP	0.146
RRIRCRPPRLPRPRPRPQFNPRP	-0.98
RRIRHRPPRLPRPRPRPDILPRP	-0.0904
RRIRTRPPRLPRPRPRPLDPPRP	-0.382
RRIRRRPPRLPRPRPRPMRDPRP	0.62
RRIRNRPPRLPRPRPRPRERPRP	0.0512
RRIRYRPPRLPRPRPRPGDLPRP	0.0641
RRIRIRPPRLPRPRPRPHAPPRP	0.2
RRIRWRPPRLPRPRPRPDIGPRP	-0.0157
RRIRFRPPRLPRPRPRPHNPPRP	-0.288
RRIRTRPPRLPRPRPRPCAEPRP	-0.11
RRIRDRPPRLPRPRPRPKIHPRP	-0.214
RRIRSRPPRLPRPRPRPLYVPRP	-0.467
RRIRDRPPRLPRPRPRPEYAPRP	0.815
RRIRYRPPRLPRPRPRPGSKPRP	-0.0678
RRIRIRPPRLPRPRPRPDILPRP	-0.354
RRIRVRPPRLPRPRPRPLCKPRP	-0.394

Sequence	shrunken log2 fold change
RRIRGRPPRLPRPRPRPRVPPRP	0.356
RRIRGRPPRLPRPRPRPLFQPRP	0.266
RRIRGRPPRLPRPRPRPRARPRP	1.09
RRIRCRPPRLPRPRPRPKYHPRP	-0.743
RRIRDRPPRLPRPRPRPDFIPRP	0.0951
RRIRPRPPRLPRPRPRPKKPPRP	0.0432
RRIRSRPPRLPRPRPRPQMKPRP	-0.32
RRIRWRPPRLPRPRPRPMFRPRP	-0.129
RRIRKRPPRLPRPRPRPKWDPRP	0.361
RRIRWRPPRLPRPRPRPFTPPRP	-0.0823
RRIRNRPPRLPRPRPRPWSCPRP	-0.42
RRIRSRPPRLPRPRPRPMSYPRP	0.0443
RRIRKRPPRLPRPRPRPITMPRP	-0.122
RRIRARPPRLPRPRPRPAHYPRP	0.095
RRIRARPPRLPRPRPRPVTVPRP	2.71
RRIRLRPPRLPRPRPRPQPLPRP	0.00386
RRIRVRPPRLPRPRPRPYFKPRP	-0.49
RRIRVRPPRLPRPRPRPGFEPRP	0.554
RRIRYRPPRLPRPRPRPQNAPRP	-0.369
RRIRCRPPRLPRPRPRPFKYPRP	-0.246
RRIRARPPRLPRPRPRPWVAPRP	0.285
RRIRERPPRLPRPRPRPNYMPRP	-0.667
RRIRLRPPRLPRPRPRPHQSPRP	-0.0648
RRIRWRPPRLPRPRPRPLPKPRP	0.12
RRIRPRPPRLPRPRPRPNFSPRP	1.08
